# From US20150197568A1 (AstraZeneca / MedImmune, published 2015)
# Tests used:
# Mature human IL-6 = Mature human IL-6 (human, UniProt P05231 30-212); test: cell-based or functional assay
# [1] = target: T1, HIS FLAG tagged human IL-6 (human, UniProt P05231 30-212); test: HTRF receptor-ligand competition; HIS FLAG human IL-6 vs biotinylated sIL-6R
# T1 construct: In house; also called HIS FLAG IL-6; HIS/FLAG IL-6
# Experimental: Unique scFvs were expressed again in bacteria and purified by affinity chromatography (as described by Bannister et al. Purified IgG samples of these clones were also prepared as described in section 1.3. The potencies of these samples were determined by competing a dilution series of the purified preparation against biotinylated sIL-6R for binding to HIS FLAG tagged human IL-6 (in house E. coli derived).
# Purified scFv and IgG from positive clones identified from screening were tested in a HTRF® assay for inhibition of binding of HIS FLAG tagged human IL-6 to biotinylated IL-6R. 8 nM biotinylated human IL-6R was pre-incubated for 30 minutes at room temperature in the dark, with 8 nM streptavidin XL^{ent!}™. All dilutions were done in phosphate buffered saline (PBS) containing 0.4 M potassium fluoride and 0.1% BSA (assay buffer).
# Murine IL-6 = target: T2, Murine IL-6 (murine, UniProt P08505 25-211); test: DELFIA epitope competition; protein titrated against biotinylated HIS FLAG IL-6 on immobilised CAN022D10 IgG
# T2 construct: also called mouse IL-6
# T2 sequence (looked up): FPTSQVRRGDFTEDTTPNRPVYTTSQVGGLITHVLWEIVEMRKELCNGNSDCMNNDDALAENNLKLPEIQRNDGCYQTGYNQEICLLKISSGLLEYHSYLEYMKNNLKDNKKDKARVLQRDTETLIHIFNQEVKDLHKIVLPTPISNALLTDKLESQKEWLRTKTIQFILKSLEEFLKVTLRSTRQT
# Experimental: (§1) Titrations of IL-6 species including cynomolgus (in house E. Coli derived), human HIS FLAG IL-6 (in house HEK-EBNA derived), rat and murine IL-6 (both R & D Systems) were tested in each assay to establish the species cross-reactivity of the antibodies. Details of the protocol are provided in the Materials and Methods section.
# (§2) Purified IgG were adsorbed onto 96-well Maxisorp microtitre plates (Nunc) in PBS at a concentration which gave a significant signal when biotinylated human IL-6 was added at approximately its estimated Kd for that particular IgG. Excess IgG was washed away with PBS-Tween (0.1% v/v) and the wells were blocked with PBS-Marvel (3% w/v) for 1 h. […] These mixtures were then transferred onto the blocked IgG and allowed to equilibrate for 1.5 h. Unbound antigen was removed by washing with PBS-Tween (0.1% v/v), while the remaining biotinylated human IL-6 was detected by streptavidin-Europium3+ conjugate (DELFIA® detection, PerkinElmer). Time-resolved fluorescence was measured at 620 nm on an EnVision plate reader (PerkinElmer). Fluorescence data was converted to % specific binding (100% was determined from control wells containing biotinylated human IL-6 but no competitor, 0% was from wells containing biotinylated human IL-6 and a 100-fold excess of unbiotinylated human IL-6). Resultant data were analysed using Prism curve fitting software (Graphpad) to determine IC50 values according to Equation 3.
# Rat IL-6 = target: T3, Rat IL-6 (rat, UniProt P20607 25-211); test: as above
# T3 sequence (looked up): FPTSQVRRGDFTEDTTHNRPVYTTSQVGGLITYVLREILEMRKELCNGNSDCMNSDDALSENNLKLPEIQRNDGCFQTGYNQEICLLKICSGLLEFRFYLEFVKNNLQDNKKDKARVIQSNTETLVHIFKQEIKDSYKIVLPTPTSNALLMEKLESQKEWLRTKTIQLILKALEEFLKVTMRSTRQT
# Experimental: as §1, §2
# Human IL-11 = target: T4, Human IL-11 (human, UniProt P20809 22-199, limits assumed); test: as above
# T4 sequence (looked up): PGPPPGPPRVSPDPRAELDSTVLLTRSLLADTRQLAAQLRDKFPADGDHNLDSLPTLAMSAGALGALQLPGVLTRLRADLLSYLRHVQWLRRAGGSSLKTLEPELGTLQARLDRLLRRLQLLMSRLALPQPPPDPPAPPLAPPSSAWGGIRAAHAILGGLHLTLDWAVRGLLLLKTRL
# Experimental: as §1, §2
# Human CNTF = target: T5, Human CNTF (human, UniProt P26441 2-200); test: as above
# T5 construct: also called ciliary neurotrophic factor
# T5 sequence (looked up): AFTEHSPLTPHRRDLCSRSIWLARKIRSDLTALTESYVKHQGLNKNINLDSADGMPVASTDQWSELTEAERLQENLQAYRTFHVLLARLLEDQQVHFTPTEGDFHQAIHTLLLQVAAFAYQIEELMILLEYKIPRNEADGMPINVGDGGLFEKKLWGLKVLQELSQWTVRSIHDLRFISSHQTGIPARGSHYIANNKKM
# Experimental: as §1, §2
# Human LIF = Human LIF (human, UniProt P15018 23-202); test: as above
# Experimental: as §1, §2
# Human Oncostatin M = target: T6, Human Oncostatin M (human, UniProt P13725 26-221); test: as above
# T6 construct: also called OsM
# T6 sequence (looked up): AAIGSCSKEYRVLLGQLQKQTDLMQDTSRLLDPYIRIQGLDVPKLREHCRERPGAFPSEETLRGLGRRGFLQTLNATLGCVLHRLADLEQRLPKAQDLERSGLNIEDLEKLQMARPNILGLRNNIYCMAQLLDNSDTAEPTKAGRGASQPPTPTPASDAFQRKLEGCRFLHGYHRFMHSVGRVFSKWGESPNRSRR
# Experimental: as §1, §2
# Sequence of Human LIF (P15018 23-202 limits assumed): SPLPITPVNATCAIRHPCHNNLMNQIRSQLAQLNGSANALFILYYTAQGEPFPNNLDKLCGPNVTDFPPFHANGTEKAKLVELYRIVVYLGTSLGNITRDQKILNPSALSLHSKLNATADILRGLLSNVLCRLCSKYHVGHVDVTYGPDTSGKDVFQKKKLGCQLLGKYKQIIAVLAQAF
binder,measurement,setting,value
"CAN022D10 IgG (antibody, V domains shown, Biotinylated in the HTRF antibody-ligand assay; also called CAN22D10; parent IgG) VH: EVQLVQSGGGLIQPGGSLRLSCAASGFTISSNYMIWVRQAPGKGLEWVSDLYYYAGDTYYADSVKGRFTMSRDISKNTVYLQMNSLRAEDTGVYYCARWADDHYYYIDVWGRGTLVTVSS VL: DIVMTQSPSTLSASVGDRVTITCRASQGISSWLAWYQQKPGRAPKVLIYKASTLESGVPSRFSGSGSGTDFTLTISSLQPEDFATYYCQQSYSTPWTFGQGTKLEIKR","IC50, IL-6 induced TF-1 cell proliferation",Mature human IL-6,93 nM
same,"IC50, endogenous IL-6 induced VEGF release from human synovial fibroblasts",Mature human IL-6,45 nM
same,IC50,[1],0.31 nM
same,binding result,Murine IL-6,no binding
same,binding result,Rat IL-6,no binding
same,binding result,Human IL-11,no binding
same,binding result,Human CNTF,no binding
same,binding result,Human LIF,no binding
same,binding result,Human Oncostatin M,no binding
